Measurements published in paper PMC3005839.
Where “and” joins values, the source holds several entries; their conditions need not be identical. Identical values can stand only once.

How the values were obtained:
[1] = target: Nucleosome core particle NCP147 (Xenopus laevis); assay: native gel or EMSA; near physiological ionic strength: 1X TBE (89 mM Tris-HCl, 89 mM boric acid, 1.0 mM EDTA, pH 8.3); preassembled NCP or array incubated with HMGN about 30 min at room temperature, electrophoresis at 4°C; 0.5 μM nucleosome core sites
[2] = target: Nucleosome core particle NCP-601 (Xenopus laevis); assay: as above
[3] = target: Centered nucleosome core particle NCP146b (Xenopus laevis); assay: native gel or EMSA; low ionic strength: 0.25X TBE (0.25X TAE for 12-array); preassembled NCP or array incubated with HMGN or NBD peptide about 30 min at room temperature, electrophoresis at 4°C; 0.5 μM nucleosome core sites; NCP on 6% polyacrylamide, array on 1% agarose/1.3% polyacrylamide
[4] = target: Nucleosome core particle NCP147 (Xenopus laevis); assay: as above
[5] = target: Nucleosome core particle NCP-601 (Xenopus laevis); assay: as above

Substance	stoichiometry N (HMGN : nucleosome core particle) [1]	stoichiometry N (HMGN : nucleosome core particle) [2]	stoichiometry N (HMGN : nucleosome) [3]	stoichiometry N (HMGN : nucleosome) [4]	stoichiometry N (HMGN : nucleosome) [5]
Xenopus laevis HMGN2 (natural protein)	2	2	1 and 2	1 and 2	2 and 1
Xenopus laevis HMGN1 (natural protein)	2	2	1 and 2	1 and 2	1 and 2
